In PMC5509671 one finds k+3 (cBid with a Bcl-xL homo-dimer, giving a cBid/Bcl-xL hetero-dimer and a Bcl-xL monomer), %CC (highest, in single GUVs) and %CC data, which are given here for 3 substances.

Where only a bound is given, the exact number is not on record here.

Assay [1] concerns the target full length human Bcl-xL S4C, C151A, labelled (human) (UniProt Q07817). Kind of assay: FCCS kinetics in solution fitted with an ODE model; Bcl-xLR and Bcl-xLG mixed and incubated 2 h at RT, then 400 nM unlabeled cBid (~10-fold excess) or buffer added at t = 0; CC followed over time; rate constants from the ODE model of scenario 2 with likelihood profiles (95% confidence).

Assay [2] concerns the target full length human Bax S4C, C62S, C126S, labelled (human) (UniProt Q07812). Kind of assay: scanning FCCS in giant unilamellar vesicles; membrane-embedded proteins in GUVs (30% CL or MOM mix), 22 °C; membrane insertion with cBid (labelled cBid as partner, or unlabeled cBid as activator; for Bax with Bcl-xL: cBid, Bax and GUVs incubated 30 min before Bcl-xL was added); mean CC above 20% indicates interaction.

Assay [3] deals with full length human Bcl-xL S4C, C151A, labelled (human) (UniProt Q07817). The assay is described as above.
Assay [4] has the same target. Briefly: fluorescence cross-correlation spectroscopy (FCCS) in solution; both partners free in solution, one with a green and one with a red dye; 150 mM NaCl, 20 mM Tris, pH 7.5; incubated at least 30 min (1 h for the cBidG titration); protein concentrations up to 200 nM; CC above 2.8% indicates interaction.

Sequence of UniProt Q07817 (Q07817 whole entry S4C/C151A): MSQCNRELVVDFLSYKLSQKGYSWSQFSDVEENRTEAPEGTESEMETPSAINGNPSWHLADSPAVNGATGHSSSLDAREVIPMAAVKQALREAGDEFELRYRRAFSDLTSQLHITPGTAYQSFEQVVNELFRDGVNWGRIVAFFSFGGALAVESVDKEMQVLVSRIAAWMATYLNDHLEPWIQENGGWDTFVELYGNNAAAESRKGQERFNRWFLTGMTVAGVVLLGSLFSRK
Sequence of UniProt Q07812 (Q07812 whole entry S4C/C62S/C126S): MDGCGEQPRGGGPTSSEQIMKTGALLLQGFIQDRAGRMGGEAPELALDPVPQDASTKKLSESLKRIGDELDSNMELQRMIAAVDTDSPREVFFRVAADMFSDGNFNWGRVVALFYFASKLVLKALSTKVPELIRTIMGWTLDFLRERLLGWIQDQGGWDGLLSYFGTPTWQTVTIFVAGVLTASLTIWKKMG

For the substance “cBid (caspase 8-cleaved full length mouse Bid), unlabeled (complex)”, in assay [1], the k+3 (cBid with a Bcl-xL homo-dimer, giving a cBid/Bcl-xL hetero-dimer and a Bcl-xL monomer) lay within 10 to 700 M⁻¹ s⁻¹.
“full length human Bax S4C, C62S, C126S, labelled (from UniProt Q07812 1-192) (natural protein)” gave a %CC (highest, in single GUVs) in assay [2] of less than 100 % CC.
As for “cBid (caspase 8-cleaved full length mouse Bid) labelled at the C-terminal fragment (complex)”, the %CC in assay [3] was more than 60 % CC; in assay [2] it was less than 40 % CC; in assay [4], less than 40 % CC.
